Reference: paper PMC9315428, “Distinctive in vitro ATP Hydrolysis Activity of AtVIPP1, a Chloroplastic ESCRT-III Superfamily Protein in Arabidopsis” (Frontiers in Plant Science, 2022)

Substrate: Nc1ncnc2c1ncn2[C@@H]1O[C@H](COP(=O)(O)OP(=O)(O)OP(=O)(O)O)[C@@H](O)[C@H]1O
Experiment: malachite green (PiColorLock) Pi release, Cornish-Bowden plot
Assay type: biochemical, Arabidopsis thaliana
Conditions: Mg2+ (2.5 mM MgCl2), pH 7.5, 37 °C, 0.5-4.0 mM ATP
Text: malachite green (PiColorLock) Pi release, Cornish-Bowden plot on AtVIPP1-His

B1: AtVIPP1-His (Arabidopsis thaliana) (protein)
chain: MNLFERFSRVVKSYANALISSFEDPEKILEQTVIEMNSDLTKMRQATAQVLASQKQLQNKYKAAQQSSDDWYKRAQLALAKGDEDLAREALKRRKSFADNATALKTQLDQQKGVVDNLVSNTRLLESKIQEAKAKKDTLLARARTAKTATKVQEMIGTVNTSGALSAFEKMEEKVMAMESEADALTQIGTDELEGKFQMLETSSVDDDLADLKKELSGSSKKGELPPGRSTVAASTRYPFKDSEIENELNELRRKANDF
notes: mature protein, N-terminal transit peptide removed, C-terminal His tag kept; E. coli BL21(DE3)pLysS; homo-oligomer (spherical particles 30-50 nm, some rods)
**Q.** Which Km does the source give for B1 here?
**A.** The Km was 3.21 mM.
